According to the supplement of paper PMC9170038:

Columns and labels:
[1] = tested on: MS2 coat protein; experiment: apparent KD of MS2 coat protein, switch ON state; designed switch direction (-1 OFF switch, 1 ON switch): -1; higher = weaker reporter binding; settings: FMN input: 0 or 200 uM; Eterna round: R93 (includes R88 designs)
Summary of the method: (§1)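 Titrations with SNAP-549-labelled MS2 coat protein ran in twofold steps from 0.7 or 1.5 nM to 3 µM, each step taking 0.8–1.5 h at the start and 10–20 min toward the end. The targets were designed RNA switches transcribed on-chip from Illumina sequencing clusters, held in 100 mM Tris-HCl pH 7.5, 80 mM KCl, 4 mM MgCl2, without or with constant ligand. Apparent KD was taken per design as the median of normalised cluster binding-curve fits.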

[2] = tested on: MS2 coat protein; experiment: apparent KD of MS2 coat protein, switch OFF state (with FMN for OFF switches, without FMN for ON switches); designed switch direction (-1 OFF switch, 1 ON switch): -1; higher = weaker reporter binding; settings: FMN input: 0 or 200 uM; Eterna round: R93 (includes R88 designs)
Summary of the method: as §1

| Sequence | apparent KD of MS2 coat protein [1] | apparent KD of MS2 coat protein [2] |
| --- | --- | --- |
| AAGAACUGAGGAUAUACAUAAUAAAAGAAAAGAAAGAAAGAACAUGAGGAUCACCCAUGUAGAAGGCGGAAGAA [Khaneferre Sobekhotep IV] | 32.7 nM | 24.5 nM |
| AAGAAGAGAGGAUAUACAUAAUAAAAGAAAAGAAACAAAGAACAUGAGGAUCACCCAUGUAGAAGGCUCAAGAA [Khasekhemre Neferhotep I] | 32.1 nM | 51 nM |
| AAGAAGCAAGGAUAUACAUGAGGAUCACCCAUGUAAAAGAAAGAAAGGGAAAAGAAAAGUAGAAGGUGCAAGAA [Titkheperure Pasebakhenniut II] | 45.2 nM | 57 nM |
| AAGAAGUAAGGAUAUACAAAAUAAAAGAAAAGAAAGAAAGAACAUGAGGAUCACCCAUGUAGAAGGUACAAGAA [Sankhkare Mentuhotep III] | 38.1 nM | 19.6 nM |
| AAGAAGUCAGGAUAUGCAAAAGAAAAGAAAAGAAAAGAAAAGCAGAAGGGACAUGAGGAUCACCCAUGUAAGAA [Metsuire Cambyses] | 32.7 nM | 40.1 nM |
| AAGAAGUGAGGAUAUACAAAAUAAAAGAAAAGAAAGAAAGAACAUGAGGAUCACCCAUGUAGAAGGUACAAGAA [Khakheperre Senusret II] | 29 nM | 22 nM |
| AAGAAGUGAGGAUAUACAUGAGGAUCACCCAUGUAAAAGAAAGAAAGGGAAAAGAAAAGUAGAAGGCACAAGAA [Usermaatre-setpenre-meryamun Ramesses VII] | 36.5 nM | 67.7 nM |
| AAGAAGUGAGGAUAUACAUGAGGAUCACCCAUGUAAAAGAAAGAAGGGAAAGAGAAAAGUAGAAGGCGCAAGAA [Neferibre Psamtik II] | 38.9 nM | 42.1 nM |
| AAGAAGUGAGGAUAUACGCGAACAAAAAAAAAAAAGAAAGCGUAGAAGGCACAUGAGGAUCACCCAUGUCAAAA [Alfred Victor Espinas] | 30.1 nM | 28.3 nM |
| AAGAAGUGAGGAUAUCGAAGACUGUCGAAAAGACAGUCGAACGAGAAGGCACAUGAGGAUCACCCAUGUGGAAA [Marsurpial 65% 5] | 30.7 nM | 36.3 nM |
| AAGAAGUGAGGAUAUGGAAAAGAAAAGAAAAGAAAAGAAAACCAGAAGGCACAUGAGGAUCACCCAUGUAAGAA [Artabanus the Hyrcanian] | 29.5 nM | 28 nM |
| AAGAAGUGAGGAUAUGUCUGUGCGAAAAAAAAAAAGUGCAGACAGAAGGCACAUGAGGAUCACCCAUGUGAAAA [Florian 65% 4] | 21.9 nM | 26.7 nM |
| AAGAAGUUAGGAUAUACAAGAAAGAAAGAAAAGAAAAGAAAACAUGAGGAUCACCCAUGUAGAAGGAACUAGAA [EteRNA is fun!] | 26.8 nM | 19.6 nM |
| AAGAAUCGAGGAUAUACAUGAGGAUCACCCAUGUAAAAGAAAGAAAAGGGAAAGAAAAGUAGAAGGCGAAAGAA [Userkhaure Setnakht] | 32.8 nM | 35.3 nM |
| AAGAGGCUAGGAUAUACACAUCUGAUGACUCAACCUAAAACACAUGAGGAUCACCCAUGUAGAAGGAGCGAAAG [Qucequor] | 20.2 nM | 17 nM |
| AAGAUGUUAGGAUAUGCUGCUCGUCACAAAAGUGAUGAGUAGCAGAAGGGACAUGAGGAUCACCCAUGUAAAGA [JL eternac mod 6] | 45.5 nM | 34.8 nM |
| AAGCUGGUAGGAUAUACUAGGGCGACUAAUGCGCCGAUAGGACAUGAGGAUCACCCAUGUAGAAGGGCCAGAAA [JR_Exc002_Sub406] | 187 nM | 70 nM |
| AAGGAGUGAGGAUAUACAUGAGGAUCACCCAUGUUGAUGGAAACGUCAGAGAAAGAAGGUAGAAGGCACAAGAA [JR_Exclusion3_Sub6] | 51.2 nM | 54.1 nM |
| AAGGGACAUGAGGAUCACCCAUGUAAGGAUAUGCUAUGGAAAAUAAAAAUAAAACAUAGCAGAAGGUACAAAAA [Denovo 15] | 124 nM | 135 nM |
| AAGGGACAUGAGGAUCACCCAUGUCAGGAUAUGAUGCGAAUAAAGAAAGAAUAAAGCAUCAGAAGGGACACCAA [Mat - Exclusion 1 - Eli mod - D64] | 23 nM | 44.6 nM |

| Sequence | apparent KD of MS2 coat protein [1] | apparent KD of MS2 coat protein [2] |
| --- | --- | --- |
| AAGGGACAUGAGGAUCACCCAUGUCAGGAUAUGCUAUGGAAAAUAAAAAUAAAACAUAGCAGAAGGGACACCAA [64%, Meechl, 3] | 25.9 nM | 40.3 nM |
| AAUAAACAUGAGGAUCACCCAUGUAAGGAUAUCGAAAAAAAAAUAAACAAAAAAAAAACGAGAAGGUACAAAAA [Exclusion 1 design 2] | 24.1 nM | 27 nM |
| AAUAAACAUGAGGAUCACCCAUGUCAGGAUAUGCAUCUAACAUAAUAACAUAAAUACAGCAGAAGGGACUAAUA [JR_Exc001_Sub601] | 30.3 nM | 20.6 nM |
| AAUCCACAUGAGGAUCACCCAUGUGAGGAUAUCGUGCAGAAAAAAAAAAAAAACUGCACGAGAAGGCACAUGGA | 35.1 nM | 20.2 nM |
| ACAAAUGUAGGAUAUACAUGAGGAUCACCCAUGUGGCACAAACAGCAAACAAGACAAAGUAGAAGGACAACGAC [JR_Exc003-Sub901] | 24.9 nM | 28.4 nM |
| ACAGCGUGAGGAUAUACAUGAGGAUCACCCAUGUGAAACAGGAAAAACUGAAAGACAUGUAGAAGGCACGCUGA [Exclusion 3.3 (Janderson's 'Tweaking Eli' some more )] | 263 nM | 28.7 nM |
| ACAGUUACAGGAUAUACAUGGAAAAAUAAAAAUAAAAAACUACAUGAGGAUCACCCAUGUAGAAGGGUAACUGA [Ex2 Design 197: Random 12F] | 42.9 nM | 86.9 nM |
| ACCUAGUCAGGAUAUACAAACAUGUCAAAAGACGUGAAAAAACAUGAGGAUCACCCAUGUAGAAGGGACUAGGA [Mat - Exclusion 2 - JL mod - D22] | 20.5 nM | 19.7 nM |
| ACGUAGAGAGGAUAUACGAACAUGUCAAAAGACGUGAAGGGACAUGAGGAUCACCCAUGUAGAAGGCUCUACGA [Mat - Exclusion 2 - JL mod - D8] | 54.8 nM | 172 nM |
| ACUAAACGAGGAUAUACUGACAAACCUCAAACAUACAUCAAACAUGAGGAUCACCCAUGUAGAAGGCGUAAACU [JR_Exc002_Sub401] | 37.6 nM | 19.6 nM |
| ACUAGUACAGGAUAUACAUGAGGAUCACCCAUGUGAGAAUUAAGUGGCGUACCACAAAGUAGAAGGGUACUAGA [Mat - Exclusion 3 - JL mod - D14] | 34.3 nM | 152 nM |
| AGAAAACAUGAGGAUCACCCAUGUCAGGAUAUACAAAAUAAAAUAAAAAUAAAAUAAAGUAGAAGGGACAAAGA [Mat - Same state - Mayanna Mod - D109] | 33.5 nM | 42.7 nM |
| AGAAAACAUGAGGAUCACCCAUGUGAGGAUAUCGAUGUCCAAAAAAAAGUGCGGGACUCGAGAAGGCACUUGGA [Erbelaed] | 46.6 nM | 32.5 nM |
| AGAAAGUCAGGAUAUGCAGAAAAAAAAACGAAAAAAAAACUGCAGAAGGGACAUGAGGAUCACCCAUGUUAAAG [Mat - Exclusion 4 - Mayanna - D129] | 46.6 nM | 34.9 nM |
| AGAAAGUUAGGAUAUACAGAUAAAAAAACGAAAAAAAAUCUGUAGAAGGAACAUGAGGAUCACCCAUGUAAAGA [Mat - Exclusion 4 - Mayanna - D105] | 28.7 nM | 23.2 nM |
| AGAAUACAUGAGGAUCACCCAUGUGAGGAUAUCCAAAGAAAAAGAAAAGAAAAGAAAAGGAGAAGGCACAAAAG [EX 1 May 13] | 78.7 nM | 67.3 nM |
| AGAAUACAUGAGGAUCACCCAUGUGAGGAUAUGCAAAUAAAAAUAAAAUAAAAUAAAUGCAGAAGGCACGAAAG [EX 1 May 22] | 35.9 nM | 58.2 nM |
| AGAUAGUCAGGAUAUACGAACAAGAAAAAAGACGAGAACGGACAUGAGGAUCACCCAUGUAGAAGGGACUAGCA [Diamond 10] | 35.6 nM | 30.2 nM |
| AGAUGACAAGGAUAUACUAGGGAUGAUAGUAGAGAAGAAGAACAUGAGGAUCACCCAUGUAGAAGGUGUAAGAA [JR_Exc002_Sub1702] | 70 nM | 61.1 nM |
